Source: the supplement of paper PMC6757056
± gives the standard deviation of the averaged measurements.

B1: library; a variant is named by its letters at N, in order (parent)
chain: GCUGUCACCGAGAAACUGUGAAGUAUAUCUUAAACCUGGGCACUUAAAAGAUAUAUGGAGUUAGUAGUGCAACCUGCUCGGUCUGAUGAGUCCNNNNNNGGACGAAACAGC

Experiments:
cyclic di-GMP [1] = variants of: B1; test: FACS-Seq fitted mean relative fluorescence mCherry/BFP without ligand (log10 relative fluorescence); HEK293T; ligand: cyclic di-GMP (c-di-GMP-II aptamer); higher = higher reporter protein expression; conditions: ligand present: no
Outline: (§1)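 Fluorescence values are fitted normal means of bin counts along the mCherry/BFP axis. HEK293T libraries lentivirally carrying the ribozyme switch in an mCherry reporter, with an EF1α-BFP marker, were enriched, exposed to ligand or not for 48 h, and sorted into 6 bins. Genomic DNA per bin was PCR-amplified, barcoded and run on MiSeq. Means of log10(mCherry/BFP) were scaled to five spiked-in control ribozymes.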

cyclic di-GMP [2] = variants of: B1; test: normalized RNA/DNA level without ligand (relative to sTRSVctl = 100) (log10 (% of sTRSVctl)); HEK293T; ligand: cyclic di-GMP (c-di-GMP-II aptamer); higher = less ribozyme self-cleavage, higher mRNA level; conditions: reporter: mCherry (pCS4076), ligand present: no
Experimental: (§2)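 Hammerhead (sTRSV) ribozyme switch libraries with a ligand aptamer grafted on stem I and a randomized N4-6 loop II, cloned into the 3' UTR of mCherry and transiently transfected into HEK293T cells; RNA-Seq 72 h post transfection with ligand added 1 h before transfection; RNA read count / plasmid DNA read count normalized to the non-cleaving sTRSVctl (x100), log10; sequences with >100 DNA reads. FACS-Seq: lentiviral library sorted into 6 bins after 48 h ligand, log-normal fit mean of mCherry/BFP scaled to controls. Printed sequences are partial switch sequences.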

cyclic di-GMP [3] = variants of: B1; test: FACS-Seq fitted mean relative fluorescence mCherry/BFP with ligand (log10 relative fluorescence); HEK293T; ligand: cyclic di-GMP (c-di-GMP-II aptamer); ligand concentration (+) FACS-Seq: 1 mM; higher = higher reporter protein expression; conditions: ligand present: yes
Outline: as §1

cyclic di-GMP [4] = variants of: B1; test: normalized RNA/DNA level with ligand (relative to sTRSVctl = 100) (log10 (% of sTRSVctl)); HEK293T; ligand: cyclic di-GMP (c-di-GMP-II aptamer); ligand concentration (+) RNA-Seq: 1 mM; higher = less ribozyme self-cleavage, higher mRNA level; conditions: reporter: mCherry (pCS4076), ligand present: yes
Experimental: as §2

Variant	FACS-Seq fitted mean (log10) (cyclic di-GMP [1])	normalized RNA/DNA level without ligand (log10) (cyclic di-GMP [2])	FACS-Seq fitted mean (log10) (cyclic di-GMP [3])	normalized RNA/DNA level with ligand (log10) (cyclic di-GMP [4])
ACAGAG	-0.3716 ± 0.0034	1.44 ± 0.14	-0.0973 ± 0.031	1.59 ± 0.052
ACAGAU	-0.584 ± 0.025	1.39 ± 0.072	-0.289 ± 0.018	1.54 ± 0.096
UCGAGC	-0.085 ± 0.098	1.736 ± 0.017	0.204 ± 0.013	1.84 ± 0.1
UCGAGA	-0.546 ± 0.018	1.47 ± 0.0053	-0.217 ± 0.11	1.71 ± 0.16
UCGAGU	-0.395 ± 0.033	1.47 ± 0.066	-0.0571 ± 0.032	1.73 ± 0.11
UCGCCA	0.132 ± 0.027	1.71 ± 0.032	0.335 ± 0.037	1.88 ± 0.073
CCAGAC	-0.24 ± 0.11	1.631 ± 0.0075	0.128 ± 0.0098	1.83 ± 0.16
CCAGAA	-0.598 ± 0.013	1.34 ± 0.14	-0.277 ± 0.015	1.58 ± 0.1
ACCACC	-0.899 ± 0.064	1.6 ± 0.088	-0.618 ± 0.019	1.76 ± 0.097
GCAGGU	-0.184 ± 0.0055	1.66 ± 0.054	0.0315 ± 0.013	1.79 ± 0.15
GCCCUA	-0.142 ± 0.071	1.688 ± 0.013	0.0262 ± 0.042	1.85 ± 0.1
ACCAUA	-0.294 ± 0.15	1.51 ± 0.065	0.0129 ± 0.043	1.71 ± 0.11
UCCCUG	0.234 ± 0.092	1.776 ± 0.0073	0.44 ± 0.0075	1.89 ± 0.13
GCCGAC	-0.43 ± 0.062	1.48 ± 0.13	-0.145 ± 0.015	1.67 ± 0.089
GCCGAA	-0.291 ± 0.03	1.45 ± 0.11	-0.0327 ± 0.018	1.72 ± 0.091
GCCGAU	-0.47 ± 0.078	1.55 ± 0.034	-0.231 ± 0.064	1.74 ± 0.1
CCGAUG	-0.912 ± 0.22	1.09 ± 0.038	-0.634 ± 0.095	1.32 ± 0.16
CCCAUU	-0.0438 ± 0.1	1.637 ± 0.0022	0.204 ± 0.023	1.79 ± 0.13
